These results are taken from paper PMC8406323, “Cellular 5′-3′ mRNA Exoribonuclease XRN1 Inhibits Interferon Beta Activation and Facilitates Influenza A Virus Replication” (mBio, 2021).

For this test, the target named is T1, GST-XRN1-C-terminal region (aa 1174–1706) fusion protein (human, UniProt Q8IZH2 1174-1706).
T1 construct: XRN1, human, C-terminal region aa 1174-1706 (vector pGEX-6P); Held on glutathione beads in the pull-down; also called GST-tagged-XRN1 (aa 1174–1706); source: E. coli BL21(DE3), purified (glutathione Sepharose 4B)
T1 sequence: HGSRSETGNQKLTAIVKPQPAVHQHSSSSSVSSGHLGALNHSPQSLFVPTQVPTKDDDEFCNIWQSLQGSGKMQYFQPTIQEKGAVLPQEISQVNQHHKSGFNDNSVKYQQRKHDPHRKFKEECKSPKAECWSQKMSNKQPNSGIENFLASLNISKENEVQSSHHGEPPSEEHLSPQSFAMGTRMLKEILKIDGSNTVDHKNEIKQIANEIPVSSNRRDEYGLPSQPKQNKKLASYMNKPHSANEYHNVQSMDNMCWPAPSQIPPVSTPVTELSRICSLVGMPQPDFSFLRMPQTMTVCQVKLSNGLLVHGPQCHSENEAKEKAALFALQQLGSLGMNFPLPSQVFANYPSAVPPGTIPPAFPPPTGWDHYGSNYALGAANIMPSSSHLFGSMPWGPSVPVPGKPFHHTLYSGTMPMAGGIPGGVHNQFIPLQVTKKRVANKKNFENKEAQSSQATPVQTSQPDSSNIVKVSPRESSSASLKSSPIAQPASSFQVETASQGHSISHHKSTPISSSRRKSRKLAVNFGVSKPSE
The experiment in a line: pull-down. Particulars: both partners purified.

B1: His-NS1 from PR8 (natural protein)
chain: MDPNTVSSFQVDCFLWHVRKRVADQELGDAPFLDRLRRDQKSLRGRGSTLGLDIETATRAGKQIVERILKEESDEALKMTMASVPASRYLTDMTLEEMSRDWSMLIPKQKVAGPLCIRMDQAIMDKNIILKANFSVIFDRLETLILLRAFTEEGAIVGEISPLPSLPGHTAEDVKNAVGVLIGGLEWNDNTVRVSETLQRFAWRSSNENGRPPLTPKQKREMAGTIRSEV
notes: also called His-tagged NS1; recombinant NS1
As to B1, the binding result was “binds”.
